Patent US20260103488A1 (INTERK PEPTIDE THERAPEUTICS, published 2026)
Bridges are numbered along the chain shown (N, C = ends). Where no end group is shown, it is not given here. [ ]: non-standard residue; d: D form.

B1: rrrrrrrr (IKD00800) (peptide)
peptide: [dR][dR][dR][dR][dR][dR][dR][dR]-NH2
modifications: N-terminus assumed
SMILES: N=C(N)NCCC[C@@H](N)C(=O)N[C@H](CCCNC(=N)N)C(=O)N[C@H](CCCNC(=N)N)C(=O)N[C@H](CCCNC(=N)N)C(=O)N[C@H](CCCNC(=N)N)C(=O)N[C@H](CCCNC(=N)N)C(=O)N[C@H](CCCNC(=N)N)C(=O)N[C@H](CCCNC(=N)N)C(N)=O
B2: rrrrrrrrrrrrrr (IKD01400) (peptide)
peptide: [dR][dR][dR][dR][dR][dR][dR][dR][dR][dR][dR][dR][dR][dR]-NH2
modifications: N-terminus assumed
SMILES: N=C(N)NCCC[C@@H](N)C(=O)N[C@H](CCCNC(=N)N)C(=O)N[C@H](CCCNC(=N)N)C(=O)N[C@H](CCCNC(=N)N)C(=O)N[C@H](CCCNC(=N)N)C(=O)N[C@H](CCCNC(=N)N)C(=O)N[C@H](CCCNC(=N)N)C(=O)N[C@H](CCCNC(=N)N)C(=O)N[C@H](CCCNC(=N)N)C(=O)N[C@H](CCCNC(=N)N)C(=O)N[C@H](CCCNC(=N)N)C(=O)N[C@H](CCCNC(=N)N)C(=O)N[C@H](CCCNC(=N)N)C(=O)N[C@H](CCCNC(=N)N)C(N)=O
B3: rrrrrrrrr-ylpnkaksr (IKR81400) (peptide)
peptide: [dR][dR][dR][dR][dR][dR][dR][dR][dR][dY][dL][dP][dN][dK][dA][dK][dS][dR]-NH2
modifications: N-terminus assumed
SMILES: CC(C)C[C@@H](NC(=O)[C@@H](Cc1ccc(O)cc1)NC(=O)[C@@H](CCCNC(=N)N)NC(=O)[C@@H](CCCNC(=N)N)NC(=O)[C@@H](CCCNC(=N)N)NC(=O)[C@@H](CCCNC(=N)N)NC(=O)[C@@H](CCCNC(=N)N)NC(=O)[C@@H](CCCNC(=N)N)NC(=O)[C@@H](CCCNC(=N)N)NC(=O)[C@@H](CCCNC(=N)N)NC(=O)[C@H](N)CCCNC(=N)N)C(=O)N1CCC[C@@H]1C(=O)N[C@H](CC(N)=O)C(=O)N[C@H](CCCCN)C(=O)N[C@H](C)C(=O)N[C@H](CCCCN)C(=O)N[C@H](CO)C(=O)N[C@H](CCCNC(=N)N)C(N)=O
B4: C-RSKAKNPLY-RRRRRR-C (Cyclised) (IK14500C) (peptide)
peptide: CRSKAKNPLYRRRRRRC
modifications: disulfide 1-17 (inferred); not fully specified; printed as C-RSKAKNPLY-RRRRRR-C (Cyclised)
B5: rskaknply-rrrrrr (ID94600) (peptide)
peptide: [dR][dS][dK][dA][dK][dN][dP][dL][dY][dR][dR][dR][dR][dR][dR]-NH2
modifications: N-terminus assumed
SMILES: CC(C)C[C@@H](NC(=O)[C@H]1CCCN1C(=O)[C@@H](CC(N)=O)NC(=O)[C@@H](CCCCN)NC(=O)[C@@H](C)NC(=O)[C@@H](CCCCN)NC(=O)[C@@H](CO)NC(=O)[C@H](N)CCCNC(=N)N)C(=O)N[C@H](Cc1ccc(O)cc1)C(=O)N[C@H](CCCNC(=N)N)C(=O)N[C@H](CCCNC(=N)N)C(=O)N[C@H](CCCNC(=N)N)C(=O)N[C@H](CCCNC(=N)N)C(=O)N[C@H](CCCNC(=N)N)C(=O)N[C@H](CCCNC(=N)N)C(N)=O

What follows are binders tested against Lck(h) (lymphocyte-specific protein tyrosine kinase) (human, UniProt P06239 1-509, limits assumed) (assay: cell-based or functional assay).
Chain of Lck(h) (lymphocyte-specific protein tyrosine kinase) (P06239 whole entry): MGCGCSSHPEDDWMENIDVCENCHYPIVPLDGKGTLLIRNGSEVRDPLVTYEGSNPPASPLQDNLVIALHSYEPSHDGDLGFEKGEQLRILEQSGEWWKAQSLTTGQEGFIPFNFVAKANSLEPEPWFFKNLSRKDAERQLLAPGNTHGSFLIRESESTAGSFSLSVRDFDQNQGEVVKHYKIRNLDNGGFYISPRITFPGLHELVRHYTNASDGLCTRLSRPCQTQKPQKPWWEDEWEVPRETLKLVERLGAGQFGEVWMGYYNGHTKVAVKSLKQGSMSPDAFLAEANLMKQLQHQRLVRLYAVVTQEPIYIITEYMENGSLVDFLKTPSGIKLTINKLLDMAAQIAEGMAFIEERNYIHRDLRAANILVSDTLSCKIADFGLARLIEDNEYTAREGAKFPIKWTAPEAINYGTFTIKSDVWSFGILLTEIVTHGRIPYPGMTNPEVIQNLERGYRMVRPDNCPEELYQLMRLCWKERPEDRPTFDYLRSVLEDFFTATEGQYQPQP

KKKKKKKKKK-NH2 [KKKKKKKKKK (10Lys)] was tested, and the “Lck activity relative to control (100%), in vitro kinase assay, peptide 1 µM” value (“Lck activity relative to control (100%)” for short) was 161 % increase in Lck activity.

First: B1
Second: B2
The “Lck activity relative to control (100%)” value of the first is lower: 80 % Lck activity relative to control for the first, 228 % Lck activity relative to control for the second.

First: RRRRRRRRRHHHHHHHHHH-NH2 [RRRRRRRRR-HHHHHHHHHH (IK00910)]
Second: RRRRRRRRRRRR-NH2 [RRRRRRRRRRRR (IK01200)]
The “Lck activity relative to control (100%)” value of the first is lower: 348 % Lck activity relative to control for the first, 401 % Lck activity relative to control for the second.

Compared with RRRRRRRRR-NH2 [RRRRRRRRR (IK00900)], RSKAKNPLYRRRRRR-NH2 [RSKAKNPLY-RRRRRR (IK14500)] is lower in “Lck activity, percentage relative to control, in vitro kinase assay, peptide 1 µM” value: 325% for the first, 82% for the second.

Compared with RSKAKNPLYRRRRR-NH2 [RSKAKNPLY-RRRRR (IK14400)], B4 is higher in “Lck activity, percentage relative to control, in vitro kinase assay, peptide 1 µM” value: 85% for the first, 221% for the second.

For RSKAKNPLYRRRRRRRRR-NH2 [RSKAKNPLY-RRRRRRRRR-NH2 (IK14800)], the “Lck activity, percentage relative to control, in vitro kinase assay, peptide 1 µM” value was 496%.

First: RRRRRRRRRYLPNKAKSR-NH2 [RRRRRRRRR-YLPNKAKSR (IK9R94Y)]
Second: RSKAKRRRRRRRRR-NH2 [RSKAK-RRRRRRRRR (IK50900)]
The “Lck activity, percentage relative to control, in vitro kinase assay, peptide 1 µM” value of the first is higher: 630 % increase in Lck activity for the first, 531 % increase in Lck activity for the second.

Compared with B3, RRRRRRRRRSKAKNPLYR-NH2 [RRRRRRRRR-SKAKNPLYR (IK9R94S)] is lower in “Lck activity, percentage relative to control, in vitro kinase assay, peptide 1 µM” value: 616 % increase in Lck activity for the first, 542 % increase in Lck activity for the second.

Compared with RSKAKNPLYKKKKKKKKK-NH2 [RSKAKNPLY-KKKKKKKKK (IK94K90)], B5 is higher in “Lck activity, percentage relative to control, in vitro kinase assay, peptide 1 µM” value: 49 % increase in Lck activity for the first, 60 % increase in Lck activity for the second.

Compared with RSKAKNPLYRHHHHHHHHHH-NH2 [RSKAKNPLY-RHHHHHHHHHH (IK14010)], HHHHHRSKAKNPLYRRRRRRRRR-NH2 [HHHHH-RSKAKNPLY-RRRRRRRRR (IK11480)] is higher in “Lck activity, percentage relative to control, in vitro kinase assay, peptide 1 µM” value: 30 % increase in Lck activity for the first, 883 % increase in Lck activity for the second.

In the case of RSKAKNPLYRRRRRRRRRHHHHHHHHHH-NH2 [RSKAKNPLY-RRRRRRRRR-HHHHHHHHHH (IK14810)], the “Lck activity, percentage relative to control, in vitro kinase assay, peptide 1 µM” value is reported as 899 % increase in Lck activity.

RSKAK-NH2 [RSKAK (IK5000)] and RSKAKRR-NH2 [RSKAK-RR (IK50200)] are the same in “Lck activity, percentage relative to control, in vitro kinase assay, peptide 1 µM” value: 5 % activation of Lck relative to control for the first, 5 % activation of Lck relative to control for the second.
